Data published in patent publication US20030026781A1, “Compositions and methods for regulating endogenous inhibitor of ATP synthase, including treatment for diabetes” (MitoKor, priority 1999, published 2003).
“Also recorded” adds a separate entry of the source. Like-named read-outs stand apart in the source and are kept apart here. Values belong to the molecule of their own block, whether it stands above or below them.

How the values were obtained:
[1] = target: T1, mitochondrial ATP synthase (ETC Complex V) in rat liver submitochondrial particles (Rattus norvegicus, UniProt P10719+P15999); experiment: Oligomycin-sensitive ATPase (ATP hydrolase) activity in rat liver submitochondrial particles (SMP); assay type: biochemical; conditions: read-out: IC50 for oligomycin-sensitive ATPase inhibition
T1 construct: rat liver submitochondrial particles (SMP) prepared from male Sprague-Dawley rat livers; from tissue; host or cells: male Sprague-Dawley rat liver, submitochondrial particles (method of Walker et al. 1995)
Procedure: The IF1(42-58) polypeptide was also tested for its ability to inhibit the F0-F1-ATPase in rat ASMPs (alkaline submitochondrial particles) prepared as in the preceding Example. […] ATP hydrolase activity was expressed as the percent of detectable activity in the absence of added IF1-containing fusion protein, and the level of oligomycin-inhibitable activity was also determined (FIG. 8).
The effects of the IF1 peptides on ATPase activity were determined by assaying ATPase in rat liver submitochondrial particles (SMP) prepared from male Sprague-Dawley rat livers according to the method of Walker et al. (1995 Meth. Enzymol. 260:163-190). […] Louis, Mo., unless otherwise noted) for 10 min at room temperature. The mixtures were then added to assay buffer (50 mM Tris-HCl, 3.3 mM MgCl2, pH 8.0) in a 96-well plate and ATPase activity was initiated by the addition of 1 mM ATP, 1 mM phophoenolypyruvate, 3 U/ml pyruvate kinase, 10 U/ml lactate dehydrogenase and 0.3 mM NADH. Reactions were monitored by recording absorbance in “kinetic read” mode at 340 nm for 10 min at 30° C. in a termperature-controlled Spectromax Plus-384™ 96-well plate reader (Molecular Devices, Inc., Sunnyvale, Calif.) according to the manufacturer's instructions. In this mode, the plate reader recorded an absorbance value for each well at approximately nine-second intervals. A parallel set of reactions was set up identically except for the addition of 10 μg/ml oligomycin, to correct for the component of ATPase activity that was oligomycin-inhibitable.
Dose-response curves were generated for IF1 peptides 14-33 (SEQ ID NO:30), 14-47 (SEQ ID NO:29), 14-46 (SEQ ID NO:67), 14-45 (SEQ ID NO:66), 14-44 (SEQ ID NO:65), 14-43 (SEQ ID NO:64) and 14-42 (SEQ ID NO:63) by setting up SMP ATPase reactions as described above with serial dilutions of the IF1 peptides over a range of several orders of magnitude between 10^−4 and 10^2 μM (FIG. 12). Data were plotted and IC50 values were calculated using Prism software (GraphPad, San Diego, Calif.) according to the nianufacturer's instructions. […]

INS-1 cells = experiment: Glucose-stimulated insulin secretion (GSIS) in INS-1 cells with tat.mito.14-47; assay type: cell-based, rat; conditions: 8 mM glucose, varying amounts of fusion protein, FIG. 13
Procedure: The nucleic acid encoding a tat.mito.14-47 fusion protein was constructed essentially as described in Example 2. The tat.mito.14-47 fusion protein (SEQ ID NO:71) enhanced GSIS in INS-1 cells when used in the assay conditions described as follows. Briefly, INS-1 cells were seeded into 12-well plates containing RPMI media supplemented as described at 0.7×10^6 cells/well and cultured at 37° C., 5% CO2 for 2 days. Cells were preincubated in the presence or absence of varying amounts of tat.mito.14-47 or vehicle control in glucose-free RPMI media supplemented with 1% FCS for 1 hr at 37° C. in a humidified 5% CO2/95% air atmosphere. Cells were rinsed with glucose-free modified KRH buffer (134 mM NaCl, 3.6 mM KCl, 0.5 mM NaH2PO4, 0.5 mM MgCl2, 1.5 mM CaCl2, 10 mM HEPES, 5 mM NaHCO3, 0.1% BSA), incubated in the same buffer for 30 min at 37° C. in a humidified 5% CO2/95% air atmosphere, again in the presence or absence of varying amounts of tat.mito.14-47 or vehicle control. Then fresh modified KRH buffer containing 0.25 mM isobutylmethyl xanthine and 8 mM glucose was added, the cells were stimulated for 30 min at 37° C., 5% CO2 and then culture supernatants were collected. Insulin concentrations in the supernatants were measured by immunoasssay (Alpco ELISA Kit) and normalized to protein (Pierce/BCA Kit) according to the manufacturers' instructions.

- IC50 ([1]; pH 6.5): 190 ± 24 nM
- IC50 ([1]; pH 7.25): 420 ± 56 nM
- IC50 ([1]; pH 8): > 800 nM
B1: rat IF1: intact rat inhibitor protein of mitochondrial ATP synthase (SEQ ID NO:13), comparator for peptide 14-47 (protein, listed as Rattus norvegicus)
chain: MAGSALAVRARLGVWGMRVLQTRGFGSDSSESMDSGAGSIREAGGAFGKREKAEEDRYFREKTREQLAALKKHHEDEIDHHSKEIERLQKQIERHKKKIKYLKNSEH

B2: tat.mito.14-47: fusion protein SEQ ID NO:71: polyhistidine tag, tat, mitochondrial targeting sequence, IF1 fragment 14-47 (protein)
chain: MGGSHHHHHHGMASMTGGQQMGRDLYDDDDKDPSSGYGRKKRRQRRRGMAGSALAVRARLGVWGMRVLQTRGFSIREAGGAFGKREKAEEDRYFREKTREQLAALKK
modifications: Fusion protein
- effect on GSIS (INS-1 cells): enhanced GSIS; also recorded: further induced glucose stimulated insulin secretion in a dose dependent manner
